We go through four molecules from article PMC5893371 (Nature medicine, 2018).

A word on the Kd: it is a measure of binding affinity in units of concentration. Usually stoichiometry N stands for a count of units in the complex or per binding partner.

The target of experiment [1] is recombinant PfCSP (rPfCSP), Plasmodium falciparum circumsporozoite protein residues 21-375 (Plasmodium falciparum 3D7 (clone of …, UniProt Q7K740)). Put plainly: ITC. For orientation: ITC needs no label: the signal is the heat of the interaction.
For experiment [2], the target named is T1, PfCSP peptide 20 (Plasmodium falciparum).
T1 chain: PADGNPDPNANPNVD
Put plainly: crystal structure.

Experiment [3] has as its target T2, PfCSP peptide 25 (Plasmodium falciparum, UniProt Q7K740, position 102 (from Pro to Val)).
T2 chain: NVDPNANPNVDPNAN
Put plainly: crystal structure.

Experiment [4] concerns the target T2, PfCSP peptide 25. Put plainly: ELISA. A general note: An ELISA detects its analyte on a solid surface through an enzyme-linked reagent.
The next experiment deals with T3, biotinylated peptide 21 (Plasmodium falciparum, also: biotin, position not given here).
T3 chain: NPDPNANPNVDPNAN
Put plainly: BLI. In general terms: BLI is a label-free optical method that tracks binding on a fibre tip over time.

Experiment [5] deals with T1, PfCSP peptide 20. As to the kind of experiment: crystal structure.
For experiment [6], the target named is T2, PfCSP peptide 25. As to the kind of experiment: crystal structure.

Like-named read-outs stand apart in the source and are kept apart here. No end group written: not given here.

B1: mAb CIS42 (antibody, V domains shown)
VH: QVQLVQSGSELKKPGASVKVSCKTSGYTFTTYAMNWVRQAPGQGLEWMGWINTNTGNPTYAPGFTGRFVFSFDTSVSTAYLQISSLKAEDTAVYYCARVYSYGVPFDYWGQGTLVTVSS
VL: QSVLTQPASVSGSPGQSITISCTATSSNVGSFNLVSWYQHHPGKAPKLIIHEVSKRPSGASNRFSGSKSGNTASLTISGLQAEDEADYYCCSYVGSDTWVFGGGTKLTV
Turning to B1, in experiment [1], the Kd was 51 nM and the “stoichiometry N” value came out at 7.

B2: CIS42 Fab (Fab, V domains shown)
VH: QVQLVQSGSELKKPGASVKVSCKTSGYTFTTYAMNWVRQAPGQGLEWMGWINTNTGNPTYAPGFTGRFVFSFDTSVSTAYLQISSLKAEDTAVYYCARVYSYGVPFDYWGQGTLVTVSS
VL: QSVLTQPASVSGSPGQSITISCTATSSNVGSFNLVSWYQHHPGKAPKLIIHEVSKRPSGASNRFSGSKSGNTASLTISGLQAEDEADYYCCSYVGSDTWVFGGGTKLTV
In the case of B2, the binding result with PfCSP peptide 20 [2] and in the experiment with PfCSP peptide 25 [3] was “binds” in each case.

B3: mAb CIS43 (antibody, V domains shown)
VH: QVQLVQSGAEVKKPGASVKVSCKASGYTFTSYAIHWVRQAPGQRLEWMGWIKAGNGNTRYSQKFQDRVTITRDTSTTTAYMELSSLRSEDTAVYYCALLTVLTPDDAFDIWGQGTMVTVSS
VL: not shown
For the molecule B3, the binding result with PfCSP peptide 25 [4] was “binds”. Also, in experiment [1], the “KD of the first binding event” value came to 7.9 nM and the “KD of the second binding event” value is 42 nM. The molecule also gave a Kd in the experiment with biotinylated peptide 21 of under 0.001 nM.

B4: CIS43 Fab (Fab, V domains shown)
VH: QVQLVQSGAEVKKPGASVKVSCKASGYTFTSYAIHWVRQAPGQRLEWMGWIKAGNGNTRYSQKFQDRVTITRDTSTTTAYMELSSLRSEDTAVYYCALLTVLTPDDAFDIWGQGTMVTVSS
VL: not shown
As to B4, the binding result with PfCSP peptide 20 [5] is given as “binds”. Besides, in the experiment with PfCSP peptide 25 [6], the binding result is listed as “binds”. Further, in experiment [1], the “KD of the first binding event” value amounted to 16 nM and the “KD of the second binding event” value is 250 nM.
